Substitutions are numbered along the chain they refer to. Numbers in names are those of the source. Values belong to the binder of their own block, whether it stands above or below them.
Experiments:
[1] = molecular target: protease (not named in the Ki determination); test: enzyme inhibition kinetics with succinyl-Ala-Ala-Pro-Phe-p-nitroanilide in 50 mM Tris pH 8; steady-state rate against the rate without inhibitor; equations of Goldstein
[2] = molecular target: T1, Streptomyces Subtilisin Inhibitor (SSI), SSI-like protein produced by PG1181
T1 chain: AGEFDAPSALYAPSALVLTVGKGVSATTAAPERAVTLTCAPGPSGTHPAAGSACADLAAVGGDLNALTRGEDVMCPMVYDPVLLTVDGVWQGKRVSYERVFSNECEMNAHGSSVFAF

- Ki [1]: 3 nM
B1: M73P D83C SSI (protein)
chain: T1 chain with M77P, D87C

B2: subtilisin BPN′ (protein)
chain: AQSVPYGVSQIKAPALHSQGYTGSNVKVAVIDSGIDSSHPDLKVAGGASMVPSETNPFQDNNSHGTHVAGTVAALNNSIGVLGVAPSASLYAVKVLGADGSGQYSWIINGIEWAIANNMDVINMSLGGPSGSAALKAAVDKAVASGVVVVAAAGNEGTSGSSSTVGYPGKYPSVIAVGAVDSSNQRASFSSVGPELDVMAPGVSIQSTLPGNKYGAYNGTSMASPHVAGAAALILSKHPNWTNTQVRSSLENTTTKLGDSFYYGKGLINVQAAAQ
- protease activity (hydrolysis of N-succinyl-Ala-Ala-Pro-Phe-p-nitroanilide, increase in absorbance at 410 nm) [2]: SSI inhibits subtilisin BPN′ and a Y217L variant of BPN′

B3: Y217L variant of subtilisin BPN′ (protein)
chain: B2 chain with Y217L
- protease activity (hydrolysis of N-succinyl-Ala-Ala-Pro-Phe-p-nitroanilide, increase in absorbance at 410 nm) [2]: SSI inhibits subtilisin BPN′ and a Y217L variant of BPN′

Source: patent US6579698
